Experiment [1] has as its target HLA I molecule A*02:01, purified. The experiment is described as follows: radioligand binding.
Experiment [2] deals with CD8 T cells of peptide‐expanded PBMCs from A*02:01‐donors. The experiment is described as follows: DimerX staining. The format is cell-based, human. The conditions noted are these: Figure 5A; peptide‐stimulated PBMCs from A*02:01‐subject #14; representative experiment.

A word on the IC50: it is the concentration that gives 50% inhibition. A lower IC50 goes with inhibition by little substance.

On to HRVC_(1791-1806) peptide, for which, in experiment [1], the concentration for half-maximal inhibition (IC50) turned out to be 91 nM.

As for NTSAGFPYV [HRVC1798‐1806], in experiment [2], the “percentage of CD8 T cells recognizing DimerX‐peptides within the total of gated‐CD8 T cells” value stood at 1.12%.

Source of the values: paper PMC7753581 (The FASEB Journal, 2020).
